Results on 1 molecule are retold here after doi:10.1101/2021.05.24.445485.

The assay deals with Escherichia coli MRE600 30S ribosomal subunits (E. coli). Kind of assay: ITC. For orientation: ITC needs no label: the signal is the heat of the interaction.

B1: initiation factor IF1 (natural protein)
chain: MAKEDNIEMQGTVLETLPNTMFRVELENGHVVTAHISGKMRKNYIRILTGDKVTVELTPYDLSKGRIVFRSR
In turn, B1 displayed a Kd of 806 nM.

One may read the Kd as the constant that tells how readily two partners part at equilibrium. The low end stands for higher affinity, the high end for lower affinity.
